From patent publication US20140086913A1 (Gilead, published 2014)
Like-named read-outs stand apart in the source and are kept apart here.

T1: mouse ECD-DDR1-Fc (mouse; human, UniProt Q03146 22-414)
T1 construct: also called mouse DDR1-ECD; wild-type mouse DDR1-ECD; not shown: human IgG1 Fc of the vector pFuse-hIgG1-Fc1 (Invivogen)
T1 sequence: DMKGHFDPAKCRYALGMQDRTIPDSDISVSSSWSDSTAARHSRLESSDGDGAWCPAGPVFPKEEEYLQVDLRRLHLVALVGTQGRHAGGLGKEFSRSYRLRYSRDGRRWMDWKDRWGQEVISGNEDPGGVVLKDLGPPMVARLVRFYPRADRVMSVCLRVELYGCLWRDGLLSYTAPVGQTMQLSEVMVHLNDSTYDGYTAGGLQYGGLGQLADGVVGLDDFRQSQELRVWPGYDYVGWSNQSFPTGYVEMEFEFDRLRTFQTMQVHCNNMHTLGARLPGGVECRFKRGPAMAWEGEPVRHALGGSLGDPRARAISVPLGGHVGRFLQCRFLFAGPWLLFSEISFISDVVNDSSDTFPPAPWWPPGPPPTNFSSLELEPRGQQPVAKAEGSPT

T2: human DDR2 stably expressed on HEK293 cells (human, UniProt Q16832 22-855)
T2 construct: whole, on cells; also called hDDR2
T2 sequence (looked up): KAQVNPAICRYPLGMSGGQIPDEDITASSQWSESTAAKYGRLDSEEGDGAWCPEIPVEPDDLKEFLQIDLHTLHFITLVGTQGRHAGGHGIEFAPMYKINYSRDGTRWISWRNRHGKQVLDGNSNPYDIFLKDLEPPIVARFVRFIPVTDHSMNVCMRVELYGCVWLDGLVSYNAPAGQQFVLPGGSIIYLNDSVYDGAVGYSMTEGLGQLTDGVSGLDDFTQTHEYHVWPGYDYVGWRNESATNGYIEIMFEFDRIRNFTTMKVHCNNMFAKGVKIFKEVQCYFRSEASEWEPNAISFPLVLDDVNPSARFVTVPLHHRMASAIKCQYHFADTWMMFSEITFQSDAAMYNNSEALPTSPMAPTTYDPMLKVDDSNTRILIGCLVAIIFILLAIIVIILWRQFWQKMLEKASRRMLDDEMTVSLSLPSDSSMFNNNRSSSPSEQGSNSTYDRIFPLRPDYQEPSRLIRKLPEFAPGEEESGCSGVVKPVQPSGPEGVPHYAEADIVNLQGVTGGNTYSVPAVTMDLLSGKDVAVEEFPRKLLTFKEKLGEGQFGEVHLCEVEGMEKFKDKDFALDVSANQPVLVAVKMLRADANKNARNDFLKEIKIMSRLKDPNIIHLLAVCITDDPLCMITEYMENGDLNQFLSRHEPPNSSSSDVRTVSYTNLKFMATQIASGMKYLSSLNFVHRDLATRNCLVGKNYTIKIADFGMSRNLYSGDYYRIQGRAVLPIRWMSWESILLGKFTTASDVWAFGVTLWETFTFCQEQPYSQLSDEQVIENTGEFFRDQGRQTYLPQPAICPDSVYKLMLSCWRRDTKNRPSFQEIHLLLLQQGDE

T3: human DDR2 stably expressed on HEK293 cells (human) (UniProt Q16832)
T3 sequence (looked up): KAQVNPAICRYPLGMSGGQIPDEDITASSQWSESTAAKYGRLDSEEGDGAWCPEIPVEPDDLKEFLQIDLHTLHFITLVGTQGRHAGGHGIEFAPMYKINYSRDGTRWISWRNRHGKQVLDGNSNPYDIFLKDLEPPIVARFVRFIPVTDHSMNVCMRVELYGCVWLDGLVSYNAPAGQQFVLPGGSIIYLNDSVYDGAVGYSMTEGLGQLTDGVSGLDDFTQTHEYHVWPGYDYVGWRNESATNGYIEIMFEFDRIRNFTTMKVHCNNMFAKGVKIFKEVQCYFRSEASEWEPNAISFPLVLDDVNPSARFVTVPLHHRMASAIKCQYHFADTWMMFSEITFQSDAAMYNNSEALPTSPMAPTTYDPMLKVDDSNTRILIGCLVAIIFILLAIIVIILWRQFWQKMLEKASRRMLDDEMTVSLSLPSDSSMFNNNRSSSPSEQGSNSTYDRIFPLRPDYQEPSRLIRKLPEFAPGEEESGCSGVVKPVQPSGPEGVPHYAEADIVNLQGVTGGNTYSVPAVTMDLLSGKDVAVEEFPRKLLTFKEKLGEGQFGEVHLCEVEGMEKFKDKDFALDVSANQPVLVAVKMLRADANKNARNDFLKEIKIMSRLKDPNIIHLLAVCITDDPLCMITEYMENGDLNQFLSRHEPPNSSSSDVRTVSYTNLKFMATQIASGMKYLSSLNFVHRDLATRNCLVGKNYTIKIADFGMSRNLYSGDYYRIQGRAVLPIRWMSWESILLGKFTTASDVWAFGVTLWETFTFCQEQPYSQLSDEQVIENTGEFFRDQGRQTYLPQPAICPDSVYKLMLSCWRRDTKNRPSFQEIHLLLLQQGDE


Assays:
[1] = molecular target: DDR1 endogenously expressed on human cancer cell lines (T47D, HCT-116, A431) (human) (UniProt Q08345); assay: cell-based or functional assay
[2] = molecular target: DDR1 endogenously expressed on human cancer cell lines (T47D, HCT-116, A431) (human) (UniProt Q08345); assay: flow cytometry, T47D cells
[3] = molecular target: DDR1 endogenously expressed on human cancer cell lines (T47D, HCT-116, A431) (human) (UniProt Q08345); assay: flow cytometry, HCT116 cells
[4] = molecular target: human DDR1 (isoform B) stably expressed on HEK293 cells (human) (UniProt Q08345); assay: flow cytometry, HEK293/hDDR1
Chain of human DDR1 (isoform B) stably expressed on HEK293 cells (human) (Q08345 19-913): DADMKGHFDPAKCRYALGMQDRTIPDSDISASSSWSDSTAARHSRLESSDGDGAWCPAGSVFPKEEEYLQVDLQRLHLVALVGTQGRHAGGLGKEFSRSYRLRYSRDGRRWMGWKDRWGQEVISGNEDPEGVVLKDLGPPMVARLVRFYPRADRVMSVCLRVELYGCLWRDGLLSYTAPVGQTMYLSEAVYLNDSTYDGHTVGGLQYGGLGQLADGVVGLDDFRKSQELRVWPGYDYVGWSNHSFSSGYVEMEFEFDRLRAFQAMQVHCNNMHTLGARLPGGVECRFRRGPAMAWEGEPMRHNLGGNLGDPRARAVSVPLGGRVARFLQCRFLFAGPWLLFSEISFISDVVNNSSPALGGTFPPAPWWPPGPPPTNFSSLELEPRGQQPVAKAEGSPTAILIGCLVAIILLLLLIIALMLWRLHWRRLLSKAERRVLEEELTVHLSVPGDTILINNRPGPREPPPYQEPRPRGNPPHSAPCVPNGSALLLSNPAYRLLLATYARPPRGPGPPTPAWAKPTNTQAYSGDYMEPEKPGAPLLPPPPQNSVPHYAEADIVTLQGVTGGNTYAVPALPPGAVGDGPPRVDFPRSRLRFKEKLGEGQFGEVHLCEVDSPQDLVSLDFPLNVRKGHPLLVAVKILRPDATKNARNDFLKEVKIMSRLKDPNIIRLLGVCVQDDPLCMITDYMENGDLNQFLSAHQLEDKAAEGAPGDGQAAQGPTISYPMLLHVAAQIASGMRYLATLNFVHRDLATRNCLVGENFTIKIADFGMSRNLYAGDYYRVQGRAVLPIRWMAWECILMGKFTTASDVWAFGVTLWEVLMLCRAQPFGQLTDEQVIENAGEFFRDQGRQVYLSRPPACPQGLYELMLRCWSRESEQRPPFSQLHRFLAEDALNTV

mouse ECD-DDR1-Fc [5] = molecular target: T1, mouse ECD-DDR1-Fc; assay: ELISA, coated antigen
Experimental: (§1) In this study, ELISA was used to determine the affinity of murine anti-DDR1 monoclonal antibodies to the extracellular domain (ECD) of either human or murine DDR1. A 96-well MaxiSorb ELISA plates (Nunc) were coated with 2 μg/mL of one of three purified recombinant tagged proteins: human ECD-DDR1-His protein, human ECD-DDR1-Fc, or mouse ECD-DDR1-Fc overnight at 4° C. The next day, the plates were blocked with 5% bovine serum albumin (BSA, Jackson Immunoresearch) prior to the addition of serially diluted anti-DDR1 monoclonal antibodies. Antibodies were incubated for 1 hr at room temperature. The binding of antibody to the antigen was detected by incubating samples with anti-mouse IgG-HRP (horse radish peroxidase) secondary detection antibody (Jackson Immunoresearch) for 1 hr. After a washing step, 3,3′,5,5″-tetramethylbenzidine (TMB) reagent was added for HRP to produce a colorimetric signal. The reaction was stopped by addition of 1M hydrochloric acid after 2 minutes and measured for absorbance (optical density, OD) at 450λ on a Molecular Devices plate reader. The OD values were plotted against antibody concentration and fitted using a using 4-parameter logistic equation in SoftMax software (Molecular Devices). The apparent affinity constant (KD) was taken from the C-parameter of the equation (y=(A−D)/(1+(x/C)̂B)+D). The apparent affinity constants were summarized (in some cases shown as average values) in Table 10 below. Lower value indicates higher binding affinity of the antibody to the antigen.

[6] = molecular target: DDR1 with a ProLink Tag (PK) in engineered U20S cells (DiscoveRx), Q08345; assay: cell-based or functional assay
[7] = molecular target: T2, human DDR2 stably expressed on HEK293 …; assay: flow cytometry, HEK293/hDDR2
Experimental: Additional monoclonal antibodies were obtained from individual hybridomas in Example 1 and were characterized for their properties.
Cells were cultured in DMEM with 10% FBS and 0.8 mg/mL hygromycin. When cells reached 60-80% confluence, they were centrifuged at 1,200 rpm for 5 minutes, suspended in FACS buffer (1×PBS, 1% BSA), and aliquoted into a 96-well plate at 1×10⁶ cells per well. The anti-DDR1 monoclonal antibodies or appropriate isotype controls at 2 μg per 1×10⁶ cells were added and incubated at 4° C. for 1 hr. The cells were washed twice with FACS buffer then stained with the anti-IgG-PE secondary antibody at 10 μL per well at 4° C. for 1 hr. The cells were washed again and measured for the MFI values or signals using flow cytometry (LSR Fortessa instrument, BD Biosciences). Background MFI signals from vector-only cells (i.e. no DDR1 or DDR2 expression) was subtracted from those of the cells treated with antibodies. Higher MFI values or signals indicated increased binding or specificity of the anti-DDR1 antibodies to the DDR1 on the cell surface.

[8] = molecular target: T4, human ECD-DDR1-His protein (human, UniProt Q08345 21-416); assay: ELISA, coated antigen, apparent KD
T4 construct: also called huDDR1-ECD-His; DDR1ECD-6Xhis; not shown: His tag
Experimental: as §1

[9] = molecular target: T5, DDR1ECD-Fc (R&D Systems, Catalog #2396-DR) (human, UniProt Q08345 21-416); assay: ELISA, coated antigen, apparent KD; human ECD-DDR1-Fc coated on the plate, not the His-tagged or mouse antigen
T5 construct: range 21-416; construct as described for the bought immunogen; also called human ECD-DDR1-Fc; Fc-ECD-DR1; not shown: human IgG1, Pro100-Lys330
Experimental: as §1, with “The apparent affinity constants were summarized (in some cases shown as average values) in Table 10 below. Lower value indicates higher binding affinity of the antibody to the antigen.” left out

[10] = molecular target: DDR1 endogenously expressed on human cancer cell lines (T47D, HCT-116, A431) (human) (UniProt Q08345); assay: cell-based or functional assay; remark: listed apart in the source
[11] = molecular target: DDR1 with a ProLink Tag (PK) in engineered U20S cells (DiscoveRx) (UniProt Q08345); assay: cell-based or functional assay
[12] = molecular target: T5, DDR1ECD-Fc (R&D Systems, Catalog …); assay: ELISA, coated antigen, apparent KD
Experimental: as §1

mouse ECD-DDR1-Fc [13] = molecular target: T1, mouse ECD-DDR1-Fc; assay: ELISA, coated antigen, apparent KD
Experimental: as §1

[14] = molecular target: T5, DDR1ECD-Fc (R&D Systems, Catalog …); assay: ELISA
[15] = molecular target: human DDR1 (isoform B) stably expressed on HEK293 cells (human) (UniProt Q08345); assay: flow cytometry, HEK293/human DDR1, normalized to empty-vector cells
[16] = molecular target: T3, human DDR2 stably expressed on HEK293 cells (human); assay: flow cytometry, HEK293/hDDR2

Binder	EC50, DDR1 phospho-specific ELISA (T47D) [1] [nM]	EC50, cluster formation assay (A431 cells) [1] [nM]	Maximal inhibition, DDR1 phospho-specific ELISA (T47D) [1] [%]	MFI [2] [MFI]	MFI [3] [MFI]	MFI [4] [MFI]	Mean EC50, DDR1 Tyr513 phosphorylation assay (U20S) [6] [nM]	MFI [7] [MFI]	Kd [8] [nM]	EC50, DDR1 phospho-specific ELISA (T47D) [10] [nM]	Maximal inhibition, DDR1 phospho-specific ELISA (T47D) [10] [%]	NPI of cluster formation at 66 nM (A431 cells) [10] [%]	Mean EC50, DDR1 Tyr513 phosphorylation assay (U20S) [11] [nM]	Kd [12] [nM]	Kd (mouse ECD-DDR1-Fc [13]) [nM]	also measured
AB2002 (antibody, V domains shown, mouse hybridoma mAb) VH: EVNLVESGGGLVKPGGSLKLSCAASGFTFSTYAMSWVRQTPEKRLEWVASISSGGITHYPDSMKGRFTVSRDNARNILYLQMRSLRSEDTAKYYCARGRSSMIPDYWGQGTSVSVSS VL: DIVMTQSHKFMSTSVGDRVSITCKASQDVGTAVAWYQQKPGQSPKLLIYWASTRHTGVPDRFTGSGSGTDFTLTISNVQSEDLADYFCQQYSTYPLTFGAGTKLELKR	1.07	9.72	100	3590	1010	7240	4.5	170	0.233	–	–	–	–	–	–	NPI of cluster formation at 66 nM (A431 cells) [1]: 102%; binding result (mouse ECD-DDR1-Fc [5]): no binding; Kd [9]: 0.268 nM
AB2061 (antibody, V domains shown, mouse hybridoma mAb) VH: EIQLQQSGPELVNPGASVKVSCKASGYSFTDYNMYWVKQSHGKSLEWIGYIDPYNGGTSYNQKFKGKATLTVDKSSSTAFMHLNSLTSEDSAVYYCAREYYGSRLWYFDVWGAGTAVTVSS VL: DIVMTQSPSSLAMSVGQKVTMSCKSSQSLLNRNNQKNYLAWYQQKPGQSPKLLVYFASTRESGVPDRFIGSGSGTDFTLTLSSVRAEDLAENFCQQHYSTPFTFGSGTRLEIKR	–	–	–	4620	1200	7500	–	384	0.391	0.66	100	126	2.5	0.418	28	EC50, cluster formation assay (A431 cells) [10]: 0.88 nM
AB2074 (antibody, V domains shown, mouse hybridoma mAb) VH: EIQLQQSGPELVNPGASVKVSCKASGYSFTDYNMYWVKQSHGKSLEWIGYIDPYNGGTSYNQKFKGKATLTVDKSSSTAFMHLNSLTSEDSAVYYCAREYYGSRLWYFDVWGAGTAVTVSS VL: DIVMTQSPSSLAMSVGQKVTMSCKSSQSLLNRNNQKNYLAWYQQKPGQSPKLLVYFASTRESGVPDRFIGSGSGTDFTLTLSSVRAEDLAENFCQQHYSTPFTFGSGTRLEIKR	–	–	–	4420	1470	7810	–	382	0.47	0.47	100	112	1.5	0.259	28.5	Kd [14]: 0.259 nM; MFI [15]: 7810 MFI
AB2080 (antibody, V domains shown, mouse hybridoma mAb) VH: EVQLQQSGPELVKPGASMKISCKASGYSFTGYTMTWVKQSHGKNLEWIGLINPYIGVTSYNQKFKGKATLTVDKSSSTAYMELLSLTSEDSAVYYCARLYDRGGRYAMDYWGQGTSVTVSS VL: QIVLTQSPAIMSASPGEKVPMTCSASSSVSFMHWYQQKSGTSPKRWIYDTSKLASGVPARFSGSGSGTSYSLTISNMEAEDAATYYCQQWNSDPWTFGGGSKL	4.67	1.24	100	1220	572	3140	2.2	–	0.418	–	–	–	–	0.669	2.89	MFI [16]: 313 MFI
